Paper PMC2749940, “Kissing G Domains of MnmE Monitored by X-Ray Crystallography and Pulse Electron Paramagnetic Resonance Spectroscopy” (PLoS Biology, 2009)
Residue numbers refer to the chain shown, from its start. Names and notes keep the numbering of the source.

Columns and labels:
NoMnmE = molecular target: T1, NoMnmE (Nostoc sp. PCC 7120 = FACHB-418, UniProt Q8YN91); assay: X-ray crystal structure; assay type: binding; conditions: copurified from E. coli; two sites in N-terminal domain dimer interface; GDP also bound
T1 construct: gene mnmE; full length, N-terminal His-tag (pET14b, E. coli BL21-DE3) cut by thrombin; homodimer
T1 sequence (Q8YN91 1-459): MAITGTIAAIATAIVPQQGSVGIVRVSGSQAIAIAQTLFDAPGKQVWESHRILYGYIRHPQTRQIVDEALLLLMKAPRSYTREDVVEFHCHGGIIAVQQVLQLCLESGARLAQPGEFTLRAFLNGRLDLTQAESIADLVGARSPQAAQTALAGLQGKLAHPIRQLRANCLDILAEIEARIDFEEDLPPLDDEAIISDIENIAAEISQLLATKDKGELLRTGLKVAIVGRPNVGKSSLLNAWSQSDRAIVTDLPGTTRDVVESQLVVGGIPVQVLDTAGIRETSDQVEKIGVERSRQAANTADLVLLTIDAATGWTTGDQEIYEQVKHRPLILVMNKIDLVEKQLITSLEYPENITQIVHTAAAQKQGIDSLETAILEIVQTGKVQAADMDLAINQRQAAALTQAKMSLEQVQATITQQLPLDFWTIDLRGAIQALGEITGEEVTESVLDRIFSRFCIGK

CtMnmE = molecular target: T2, CtMnmE (Chlorobaculum tepidum, UniProt Q8KAS1); assay: X-ray crystal structure (soak); assay type: binding; conditions: 5 mM 5-F-THF in cryoprotectant; N-terminal domain dimer interface; GDP also bound
T2 construct: gene mnmE; full length, N-terminal His-tag (pET14b, E. coli BL21-DE3) cut by thrombin; homodimer
T2 sequence (Q8KAS1 1-473): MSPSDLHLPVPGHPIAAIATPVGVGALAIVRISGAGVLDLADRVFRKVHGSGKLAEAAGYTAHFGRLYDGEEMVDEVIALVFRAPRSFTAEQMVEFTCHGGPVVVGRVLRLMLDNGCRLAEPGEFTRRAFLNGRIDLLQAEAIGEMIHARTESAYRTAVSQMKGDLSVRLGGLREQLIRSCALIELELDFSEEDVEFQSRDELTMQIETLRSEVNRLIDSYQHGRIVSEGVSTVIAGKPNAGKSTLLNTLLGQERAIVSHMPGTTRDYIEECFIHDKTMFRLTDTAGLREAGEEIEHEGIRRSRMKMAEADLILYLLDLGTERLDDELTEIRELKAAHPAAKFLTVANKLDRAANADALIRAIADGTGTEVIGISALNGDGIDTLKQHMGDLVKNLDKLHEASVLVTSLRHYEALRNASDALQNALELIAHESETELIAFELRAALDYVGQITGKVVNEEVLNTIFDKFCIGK

[1] = molecular target: the molecule itself; assay: crystal structure; full-length MnmE crystallised with K+, GDP and AlFx (only GDP found bound); hanging-drop vapour diffusion; homodimer by crystallographic symmetry
[2] = molecular target: the molecule itself; assay: pulse EPR (four-pulse DEER) of spin-labelled protein; 200–500 µM MTSSL-labelled protein in 100 mM KCl (or NaCl, RbCl, CsCl, NH4Cl), 50 mM Tris-HCl, 5 mM MgCl2 pH 7.4; apo, 1 mM GDP, 1 mM GppNHp or GDP-AlFx; measured at 50 K; distances between the two symmetry-related labels of the dimer

Nc1nc2c(c(=O)[nH]1)N(C=O)[C@@H](CNc1ccc(C(=O)N[C@@H](CCC(=O)O)C(=O)O)cc1)CN2 [5-F-THF, 5-formyl-tetrahydrofolate]
X-ray crystal structure (NoMnmE): two molecules of 5-formyl-tetrahydrofolate (5-F-THF) were identified in the structure of NoMnmE·GDP | X-ray crystal structure (soak) (CtMnmE): in the crystal structure 5-F-THF is found in identical positions as in the NoMnmE·GDP-dimer

B1: Chlorobium tepidum MnmE (natural protein, UniProt Q8KAS1 1-473, looked up)
chain: T2 sequence (Q8KAS1 1-473)
notes: MnmE of Chlorobium tepidum, full-length protomer, cloned into pET14b; Crystallised with GDP (grown with GDP-AlFx and K+) and with GppCp; homodimer through the N-terminal domains; also called CtMnmE; CtMnmE·GDP; source: E. coli BL21-DE3, purified (Ni-NTA, thrombin cleavage of the His-tag, gel filtration on Superdex 200); not shown: His tag, N-terminal, cleaved
binding result [1]: binds

B2: Nostoc sp. 7120 MnmE (natural protein, UniProt Q8YN91 1-459, looked up)
chain: T1 sequence (Q8YN91 1-459)
notes: MnmE of Nostoc sp; 7120, full-length protomer, cloned into pET14b; Crystallised with GDP (grown with GDP-AlFx and K+); 5-formyl-tetrahydrofolate was co-purified; also called NoMnmE; NoMnmE·GDP; source: E. coli BL21-DE3, purified (Ni-NTA, thrombin cleavage of the His-tag, gel filtration on Superdex 200); not shown: His tag, N-terminal, cleaved
binding result [1]: binds

B3: E. coli MnmE-C451S E287R1 (Glu287 mutated to Cys, MTSSL-labelled) (natural protein, UniProt P25522 1-454, looked up)
chain: MSDNDTIVAQATPPGRGGVGILRISGFKAREVAETVLGKLPKPRYADYLPFKDADGSVLDQGIALWFPGPNSFTGEDVLELQGHGGPVILDLLLKRILTIPGLRIARPGEFSERAFLNDKLDLAQAEAIADLIDASSEQAARSALNSLQGAFSARVNHLVEALTHLRIYVEAAIDFPDEEIDFLSDGKIEAQLNDVIADLDAVRAEARQGSLLREGMKVVIAGRPNAGKSSLLNALAGREAAIVTDIAGTTRDVLREHIHIDGMPLHIIDTAGLREASDEVERIGICRAWQEIEQADRVLFMVDGTTTDAVDPAEIWPEFIARLPAKLPITVVRNKADITGETLGMSEVNGHALIRLSARTGEGVDVLRNHLKQSMGFDTNMEGGFLARRRHLQALEQAAEHLQQGKAQLLGAWAGELLAEELRLAQQNLSEITGEFTSDDLLGRIFSSFSIGK
modifications: MTSSL spin label (R1 side chain) on the cysteine at 287
notes: MnmE of E. coli, full length, Cys mutant in the C451S background; also called EcMnmE E287R1; source: purified, nucleotide-free
binding result [2]: binds

B4: E. coli MnmE-C451S D366R1 (Asp366 mutated to Cys, MTSSL-labelled) (natural protein, UniProt P25522 1-454, looked up)
chain: B3 chain with C287E, D366C
modifications: MTSSL spin label (R1 side chain) on the cysteine at 366
notes: MnmE of E. coli, full length, Cys mutant in the C451S background; source: purified, nucleotide-free
binding result [2]: binds

B5: E. coli MnmE-C451S S278R1 (Ser278 mutated to Cys, MTSSL-labelled) (natural protein, UniProt P25522 1-454, looked up)
chain: B3 chain with S278C, C287E
modifications: MTSSL spin label (R1 side chain) on the cysteine at 278
notes: as for B4
binding result [2]: binds

B6: E. coli MnmE-C451S I105R1 (Ile105 mutated to Cys, MTSSL-labelled) (natural protein, UniProt P25522 1-454, looked up)
chain: B3 chain with I105C, C287E
modifications: MTSSL spin label (R1 side chain) on the cysteine at 105
notes: as for B4
binding result [2]: binds
